Measurements from paper PMC8594432, “One-step, kit-based radiopharmaceuticals for molecular SPECT imaging: a versatile diphosphine chelator for ^99mTc radiolabelling of peptides” (Dalton Transactions (Cambridge, England : 2003), 2021).

Type: physicochemical
Source text: Reaction of RGD with BMA[21,22] in a basic solution of DMF followed by semi-preparative reverse-phase C18 HPLC provided the diphosphine conjugate DP-RGD (Scheme 1) in ≥95% purity and 86% yield. DP-RGD was characterised by ^1H, ^13C and ^31P NMR, analytical HPLC and HR-ESI-MS (Fig. S1–S6 and Tables S1, S2 ^†).

SMILES: N=C(N)NCCC[C@@H]1NC(=O)[C@H](CCCCNC(=O)/C(=C(\C(=O)O)P(c2ccccc2)c2ccccc2)P(c2ccccc2)c2ccccc2)NC(=O)[C@@H](Cc2ccccc2)NC(=O)[C@H](CC(=O)O)NC(=O)CNC1=O [DP-RGD]
- stability in acidic solutions (in words): decomposed to re-form RGD and BMA
- stability to oxidation in solution (in words): slowly oxidised in solution to phosphine oxide derivatives
- stability to oxidation in the solid state (in words): stable to oxidation
